Data set [1] has as its target T1, YggS (E. coli PLP-BP), wild type (Escherichia coli) (UniProt P67080).
T1 sequence: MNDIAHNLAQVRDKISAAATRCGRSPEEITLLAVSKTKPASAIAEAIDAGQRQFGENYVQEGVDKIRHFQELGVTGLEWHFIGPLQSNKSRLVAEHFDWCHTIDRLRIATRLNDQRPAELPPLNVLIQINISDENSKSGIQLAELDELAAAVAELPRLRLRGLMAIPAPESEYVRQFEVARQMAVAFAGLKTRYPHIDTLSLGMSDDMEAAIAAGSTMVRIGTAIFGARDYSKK
The data set is described as follows: EMSA. To be noted: REMSA with fixed RNA: 10 mM HEPES pH 7.3, 10 mM KCl, 1 mM MgCl2, 1 mM DTT, 5% glycerol, RT 30 min; 5% native PAGE, 0.5x TBE (fixed-protein REMSA: 20 mM HEPES …). Background: A gel shift assay detects complexes by their altered migration in electrophoresis.

In data set [2] the test system is YggS (E. coli PLP-BP), wild type (Escherichia coli). Kind of data set: EMSA. To be noted: apo-form (no PLP); REMSA with fixed RNA: 10 mM HEPES pH 7.3, 10 mM KCl, 1 mM MgCl2, 1 mM DTT, 5% glycerol, RT 30 min; 5% native PAGE, 0.5x TBE (fixed-protein REMSA: 20 mM HEPES …).

From publication PMC11602438 come the findings set out here.

One may read the Kd as the constant that tells how readily two partners part at equilibrium. High values mean lower affinity, low ones higher affinity.

Consider “GGGUCGCGUGGAAGCCCUGCCUGGGGUUGAAGCGUUAAAACUUAAUCAGGCUAGUUUGUUAGUGGCGUGUCCGUCCGCAGCUGGCAAGCGAAUGUAAAGACUGACUAAGCAUGUAGUACCGAGG [SsrA RNA fragment (198-318)]”, for which, in data set [1], the equilibrium dissociation constant (Kd) came out at 2.8 µM.

“GGGUGGUAACAGUCCGUGGCACGGUAAACUCCACCCGGAGCAAGGCCAAAUAGGGGUUCAUAAGGUACGGCCCGUACUGAACCCGGGUAGGCUGCUUGAGCCAGUGAGCGAUUGCUGGCCUAGAUGAAUGACUGUCCACGACAGAACCCGG [RnpB RNA fragment (210-357)]”: the equilibrium dissociation constant (Kd) in data set [1] was found to be 3.4 µM. On to RnpB RNA fragment (210-357), for which the dissociation constant (Kd) in data set [2] came to 3.4 µM. In data set [2], SsrA RNA fragment (198-318) registered a dissociation constant (Kd) of 2.8 µM. The Kd values of the last two substances are within 1.5-fold of each other.
